The text below walks through data of PMC10914487, “Interaction of human dendritic cell receptor DEC205/CD205 with keratins” (The Journal of Biological Chemistry, 2024).

The chains are these.
T1: CysR∼CTLD3-Fc of DEC205 (human, UniProt O60449 28-627)
T1 construct: signal peptide in the construct; DEC205 (CD205, Ly75), human, CysR∼CTLD3 fragment, residues M1-S627; Human Fc homodimeric fragment with 6xHis at its C-termini fused to the C-terminus of CysR∼CTLD3; Used for Western blot (overlay) assays and ELISA; also called CysR∼CTLD3 fragment; CysR-CTLD3 fragment; source: High-Five insect cells (baculovirus made in Sf9), from culture supernatant, purified …
T1 sequence (looked up): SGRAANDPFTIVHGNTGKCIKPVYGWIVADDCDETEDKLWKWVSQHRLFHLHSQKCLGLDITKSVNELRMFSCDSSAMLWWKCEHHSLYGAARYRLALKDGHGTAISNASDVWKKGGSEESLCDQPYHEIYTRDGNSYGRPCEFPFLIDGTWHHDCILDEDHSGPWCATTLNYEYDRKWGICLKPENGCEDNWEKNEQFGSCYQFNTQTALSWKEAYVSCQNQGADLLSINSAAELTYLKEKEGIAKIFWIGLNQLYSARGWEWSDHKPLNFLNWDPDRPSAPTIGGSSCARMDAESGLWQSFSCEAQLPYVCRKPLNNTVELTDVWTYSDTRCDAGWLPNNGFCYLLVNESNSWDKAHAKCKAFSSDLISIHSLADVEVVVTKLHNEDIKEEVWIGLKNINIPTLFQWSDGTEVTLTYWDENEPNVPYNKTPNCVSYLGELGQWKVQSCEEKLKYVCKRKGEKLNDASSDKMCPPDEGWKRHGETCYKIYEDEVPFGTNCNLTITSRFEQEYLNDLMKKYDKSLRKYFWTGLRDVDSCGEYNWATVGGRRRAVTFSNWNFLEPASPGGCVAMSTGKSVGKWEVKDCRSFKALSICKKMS

T2: CysR∼CTLD3-GFP fragment of DEC205 (wild type) (human, UniProt O60449 28-627)
T2 construct: signal peptide in the construct; DEC205 (CD205, Ly75), human, CysR∼CTLD3 fragment, residues M1-S627; Used for flow cytometry; also called CysR-CTLD3 fragment; not shown: GFP, C-terminal, kept
T2 sequence (looked up): T1 sequence (looked up)

T3: Human keratin 10 C-terminal tail fragment K10-T1 (residue G461-Y584) (human, UniProt P13645 461-584)
T3 chain: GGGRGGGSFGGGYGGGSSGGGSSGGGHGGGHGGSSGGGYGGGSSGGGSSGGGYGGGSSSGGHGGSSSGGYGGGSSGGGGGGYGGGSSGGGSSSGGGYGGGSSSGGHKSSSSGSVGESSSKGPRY

T4: Human keratin 1 tail region K1-T1 (residue E490-R644) (human, UniProt P04264 490-644)
T4 chain: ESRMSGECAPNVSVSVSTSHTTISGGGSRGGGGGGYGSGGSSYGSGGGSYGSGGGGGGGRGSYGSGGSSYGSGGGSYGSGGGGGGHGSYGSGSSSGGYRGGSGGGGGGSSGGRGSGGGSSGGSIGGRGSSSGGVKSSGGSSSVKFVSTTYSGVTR

B1: K10-T7 (residue S477-H491), SUMO fusion (peptide, UniProt P13645 477-491, looked up)
chain: SSGGGSSGGGHGGGH
notes: keratin 10 (K10), human, tail, residues S477-H491; source: E. coli BL21(DE3), pET28a, purified (Ni-NTA); not shown: SUMO, N-terminal, kept
B2: K10-T9 (residue G507-G520), SUMO fusion (peptide, UniProt P13645 507-520, looked up)
chain: GSSGGGYGGGSSSG
notes: keratin 10 (K10), human, tail, residues G507-G520; source: E. coli BL21(DE3), pET28a, purified (Ni-NTA); not shown: SUMO, N-terminal, kept
B3: K10-T11 (residue G507-G516), SUMO fusion (peptide)
chain: GSSGGGYGGG
notes: keratin 10 (K10), human, tail, residues G507-G516; source: E. coli BL21(DE3), pET28a, purified (Ni-NTA); not shown: SUMO, N-terminal, kept
B4: Human keratin 10 C-terminal tail fragment K10-T1 (residue G461-Y584) (domain or fragment, UniProt P13645 461-584, looked up)
chain: T3 chain
notes: keratin 10 (K10), human, C-terminal tail, residues G461-Y584; Expressed without a SUMO tag; source: E. coli BL21(DE3), pET28a, purified (Ni-NTA)
B5: K10-T2 (residue G461-G520), SUMO fusion (domain or fragment, human, UniProt P13645 461-520, looked up)
chain: GGGRGGGSFGGGYGGGSSGGGSSGGGHGGGHGGSSGGGYGGGSSGGGSSGGGYGGGSSSG
notes: keratin 10 (K10), human, tail, residues G461-G520; source: E. coli BL21(DE3), pET28a, purified (Ni-NTA); not shown: SUMO, N-terminal, kept
B6: K10-T5 (residue G492-G520), SUMO fusion (peptide, UniProt P13645 492-520, looked up)
chain: GGSSGGGYGGGSSGGGSSGGGYGGGSSSG
notes: keratin 10 (K10), human, tail, residues G492-G520; source: E. coli BL21(DE3), pET28a, purified (Ni-NTA); not shown: SUMO, N-terminal, kept
B7: K10-T4 (residue G461-H491), SUMO fusion (peptide, UniProt P13645 461-491, looked up)
chain: GGGRGGGSFGGGYGGGSSGGGSSGGGHGGGH
notes: keratin 10 (K10), human, tail, residues G461-H491; source: E. coli BL21(DE3), pET28a, purified (Ni-NTA); not shown: SUMO, N-terminal, kept
B8: K10-T8 (residue G492-G506), SUMO fusion (peptide, UniProt P13645 492-506, looked up)
chain: GGSSGGGYGGGSSGG
notes: keratin 10 (K10), human, tail, residues G492-G506; source: E. coli BL21(DE3), pET28a, purified (Ni-NTA); not shown: SUMO, N-terminal, kept
B9: K10-T6 (residue G461-G476), SUMO fusion (peptide, UniProt P13645 461-476, looked up)
chain: GGGRGGGSFGGGYGGG
notes: keratin 10 (K10), human, tail, residues G461-G476; source: E. coli BL21(DE3), pET28a, purified (Ni-NTA); not shown: SUMO, N-terminal, kept
B10: K1-T3 (G532-G541 and G560-G569: GSGGGSYGSG), SUMO fusion (peptide)
chain: GSGGGSYGSG
notes: Expressed and purified for ELISA and flow cytometry; source: E. coli BL21(DE3), pET28a, purified (Ni-NTA)
B11: K1-T2 (I512-G521: ISGGGSRGGG), SUMO fusion (peptide)
chain: ISGGGSRGGG
notes: keratin 1 (K1), human, tail, residues I512-G521; Expressed and purified for ELISA and flow cytometry; source: E. coli BL21(DE3), pET28a, purified (Ni-NTA)
B12: chemically synthesized peptide K10-T10 (peptide)
peptide: GSSGGGHGGG
notes: keratin 10 (K10), human, tail, residues G481-G490; source: synthetic peptide
B13: chemically synthesized peptide K10-T11 (peptide)
peptide: GSSGGGYGGG
notes: keratin 10 (K10), human, tail, residues G507-G516; source: synthetic peptide
B14: K10-T10 (residue G481-G490), SUMO fusion (peptide)
chain: GSSGGGHGGG
notes: keratin 10 (K10), human, tail, residues G481-G490; Form used in the Western blot (overlay) assay and, with SUMO as control, in ELISA; source: E. coli BL21(DE3), pET28a, purified (Ni-NTA); not shown: SUMO, N-terminal, kept
B15: CysR∼CTLD3-Fc of DEC205 (Fc fusion)
chain: T1 sequence (looked up)
B16: CysR∼CTLD3 fragment of human DEC205 (residues M1-S627) with a C-terminal 6xHis-tag (domain or fragment, UniProt O60449 28-627, looked up)
chain: T1 sequence (looked up)
notes: signal peptide in the construct; DEC205 (CD205, Ly75), human, CysR∼CTLD3 fragment, residues M1-S627; Construct used for crystallisation; a homodimer stands in the asymmetric unit of the P1 crystal form only; also called N-terminal fragment of DEC205; CD205; source: High-Five insect cells (baculovirus made in Sf9), from culture supernatant, purified (Ni-NTA, gel filtration)

Where two headings read alike, the source gives them in different places.

For data set [1], the target named is T1, CysR∼CTLD3-Fc of DEC205. The data set is described as follows: far-Western, overlay or dot blot; keratin fragments resolved by SDS-PAGE and transferred to PVDF; membrane incubated with CysR∼CTLD3-Fc (10 μg/ml) in PBS, 5% milk, 0.1% Tween 20, pH 6.0 or pH 7.4, 2 h, room temperature; detected with HRP anti-human IgG Fcγ antibody. To be noted: both partners purified.

For data set [2], the target named is T1, CysR∼CTLD3-Fc of DEC205. The data set is described as follows: ELISA; keratin fragments coated (∼2 μg per well); CysR∼CTLD3-Fc serially diluted in PBS, 2 mg/ml BSA at preset pH (acidic pH), 2 h, 37 °C; detected with HRP anti-human IgG Fcγ antibody. To be noted: both partners purified.
Data set [3] has as its target T2, CysR∼CTLD3-GFP fragment of DEC205 (wild …). The experiment in a line: flow cytometry on cells; inhibition assay: ActD-induced Jurkat cells in PBS pH 6.0 incubated with CysR∼CTLD3-GFP with or without keratin fragments (about 20 μg/ml); the pair meant is keratin fragment and CysR∼CTLD3-GFP. To be noted: both partners purified. Background: A flow cytometer gives signals particle by particle.

Data set [4] addresses B15. The data set is described as follows: ELISA; pH 6.0. (In general: ELISA stands for enzyme-linked immunosorbent assay.)
Data set [5] concerns the target B15. The data set is described as follows: ELISA; pH 6.0.
Data set [6] addresses T3, Human keratin 10 C-terminal tail …. The data set is described as follows: ELISA; pH 6.0.
The target in data set [7] is T4, Human keratin 1 tail region K1-T1 …. The data set is described as follows: ELISA; pH 6.0.
Data set [8] concerns the molecule itself. The experiment in a line: crystal structure; CysR∼CTLD3-His crystallised in 0.2 M sodium citrate, 20% PEG3350, pH 6.5-7.4, 18 °C; P1 crystal form with a homodimer in one asymmetric unit.

Take B1: the binding result with CysR∼CTLD3-Fc of DEC205 [1] is “binds”. Consider B2, for which the binding result with CysR∼CTLD3-Fc of DEC205 [1] was “binds”. The same measure, in the same setting: under B3 stands “binds”.

As for B4, the binding result (with CysR∼CTLD3-Fc of DEC205 [2]; in data set [3]) was “binds” in each case. With B5, the binding result in the data set with CysR∼CTLD3-Fc of DEC205 [1] is “binds”. Still for that read-out and setting: under B6 stands “binds”; under B7, “binds”. Still for that read-out and setting: under B8 stands “binds”; under B9, “binds”. For orientation: Kd means the constant that tells how readily two partners part at equilibrium. A low value points to tighter binding. Consider B10, for which the binding result (in the data set with CysR∼CTLD3-Fc of DEC205 [2]; in data set [3]) was “binds” each time. In the data set with CysR∼CTLD3-Fc of DEC205 [4], this molecule gave a Kd of 28.7 nM. B11: the binding result (with CysR∼CTLD3-Fc of DEC205 [2]; in data set [3]) was “binds” each time. Besides, in the data set with CysR∼CTLD3-Fc of DEC205 [4], binding was put at a Kd of 29.1 nM. For the molecule B12, the binding result in data set [3] is “binds”. The same measure, in the same setting: under B13 stands “binds”. With B14, the binding result with CysR∼CTLD3-Fc of DEC205 [2] is on record as “binds”. Moreover, in the data set with CysR∼CTLD3-Fc of DEC205 [5], the Kd is 10.9 nM. Regarding B15, the Kd in data set [6] was determined as 11.5 nM; in data set [7] it was 31.2 nM. For B16, the binding result in data set [8] is listed as “binds”.
